The target in this assay is BRCA1 (UniProt P38398). Description: anti-HA co-IP from nuclear extract, blot. To be noted: reference: wild type FANCJ; sites S990.

As to FANCJ (from UniProt Q9BX63) S990A, the “binding against the reference” value is listed as “lost”.

Source of the values: paper PMC7162537.
